Data published in US20150344570A1 (published 2015).

T1: FcγRIIb extracellular domain with C-terminal His tag (human, UniProt P31994 43-217)
T1 construct: extracellular domain; also called FcgRIIb; 2b
T1 sequence (looked up): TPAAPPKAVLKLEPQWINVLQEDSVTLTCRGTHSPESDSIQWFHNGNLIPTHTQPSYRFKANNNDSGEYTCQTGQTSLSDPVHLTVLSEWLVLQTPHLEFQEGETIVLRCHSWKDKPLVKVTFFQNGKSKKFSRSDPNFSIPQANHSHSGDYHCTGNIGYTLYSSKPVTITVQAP

B1: GpH7-A5/GpH7-B3 variant G237_18N/GpL16-k0 (antibody, human IgG1, kappa)
heavy 1: not shown
heavy 2: not shown
light: DIVMTQSPLSLPVTPGEPASISCQASESLVHSNRNTYLHWYLQKPGQSPQLLIYKVSNRFSGVPDRFSGSGSGTDFTLKISRVEAEDVGVYYCSQNTHVPPTFGQGTKVEIERTVAAPSVFIFPPSDEQLKSGTASVVCLLNNFYPREAKVQWKVDNALQSGNSQESVTEQDSKDSTYSLSSTLTLSKADYEKHKVYACEVTHQGLSSPVTKSFNRGEC
notes: also called He Ab G237_18N
B2: GpH7-A5/GpH7-B3 variant I336_06M/GpL16-k0 (antibody, human IgG1, kappa)
heavy 1: not shown
heavy 2: not shown
light: B1 light
notes: also called He Ab I336_06M
B3: GpH7-A5/GpH7-B3 variant K326_07I/GpL16-k0 (antibody, human IgG1, kappa)
heavy 1: not shown
heavy 2: not shown
light: B1 light
notes: also called He Ab K326_07I
B4: GpH7-A5/GpH7-B3 variant I332_02A/GpL16-k0 (antibody, human IgG1, kappa)
heavy 1: not shown
heavy 2: not shown
light: B1 light
notes: also called He Ab I332_02A
B5: GpH7-A5/GpH7-B3 variant N325_06M/GpL16-k0 (antibody, human IgG1, kappa)
heavy 1: not shown
heavy 2: not shown
light: B1 light
notes: also called He Ab N325_06M
B6: GpH7-A5/GpH7-B3 variant S298_06M/GpL16-k0 (antibody, human IgG1, kappa)
heavy 1: not shown
heavy 2: not shown
light: B1 light
notes: also called He Ab S298_06M
B7: GpH7-A5/GpH7-B3 variant I336_08L/GpL16-k0 (antibody, human IgG1, kappa)
heavy 1: not shown
heavy 2: not shown
light: B1 light
notes: also called He Ab I336_08L
B8: GpH7-A5/GpH7-B3 variant P271_09D/GpL16-k0 (antibody, human IgG1, kappa)
heavy 1: not shown
heavy 2: not shown
light: B1 light
notes: also called He Ab P271_09D
B9: GpH7-A5/GpH7-B3 variant L328_09D/GpL16-k0 (antibody, human IgG1, kappa)
heavy 1: not shown
heavy 2: not shown
light: B1 light
notes: also called He Ab L328_09D
B10: GpH7-A5/GpH7-B3 variant G237_19Q/GpL16-k0 (antibody, human IgG1, kappa)
heavy 1: not shown
heavy 2: not shown
light: B1 light
notes: also called He Ab G237_19Q
B11: GpH7-A5/GpH7-B3 variant P331_20W/GpL16-k0 (antibody, human IgG1, kappa)
heavy 1: not shown
heavy 2: not shown
light: B1 light
notes: also called He Ab P331_20W
B12: GpH7-A5/GpH7-B3 variant N325_03V/GpL16-k0 (antibody, human IgG1, kappa)
heavy 1: not shown
heavy 2: not shown
light: B1 light
notes: also called He Ab N325_03V
B13: GpH7-A5/GpH7-B3 variant P331_07I/GpL16-k0 (antibody, human IgG1, kappa)
heavy 1: not shown
heavy 2: not shown
light: B1 light
notes: also called He Ab P331_07I
B14: GpH7-A5/GpH7-B3 variant L235_20W/GpL16-k0 (antibody, human IgG1, kappa)
heavy 1: not shown
heavy 2: not shown
light: B1 light
notes: also called He Ab L235_20W
B15: GpH7-A5/GpH7-B3 variant L234_10E/GpL16-k0 (antibody, human IgG1, kappa)
heavy 1: not shown
heavy 2: not shown
light: B1 light
notes: also called He Ab L234_10E
B16: GpH7-A5/GpH7-B3 variant S267_01G/GpL16-k0 (antibody, human IgG1, kappa)
heavy 1: not shown
heavy 2: not shown
light: B1 light
notes: also called He Ab S267_01G
B17: GpH7-A5/GpH7-B3 variant N325_13S/GpL16-k0 (antibody, human IgG1, kappa)
heavy 1: not shown
heavy 2: not shown
light: B1 light
notes: also called He Ab N325_13S
B18: GpH7-A5/GpH7-B3 variant H268_03V/GpL16-k0 (antibody, human IgG1, kappa)
heavy 1: not shown
heavy 2: not shown
light: B1 light
notes: also called He Ab H268_03V
B19: GpH7-A5/GpH7-B3 variant K326_08L/GpL16-k0 (antibody, human IgG1, kappa)
heavy 1: not shown
heavy 2: not shown
light: B1 light
notes: also called He Ab K326_08L
B20: GpH7-A5/GpH7-B3 variant P238_04F/GpL16-k0 (antibody, human IgG1, kappa)
heavy 1: not shown
heavy 2: not shown
light: B1 light
notes: also called He Ab P238_04F
B21: GpH7-A5/GpH7-B3 variant S239_05P/GpL16-k0 (antibody, human IgG1, kappa)
heavy 1: not shown
heavy 2: not shown
light: B1 light
notes: also called He Ab S239_05P
B22: GpH7-A5/GpH7-B3 variant L235_15Y/GpL16-k0 (antibody, human IgG1, kappa)
heavy 1: not shown
heavy 2: not shown
light: B1 light
notes: also called He Ab L235_15Y
B23: GpH7-A5/GpH7-B3 variant N325_04F/GpL16-k0 (antibody, human IgG1, kappa)
heavy 1: not shown
heavy 2: not shown
light: B1 light
notes: also called He Ab N325_04F
B24: GpH7-A5/GpH7-B3 variant P238_16H/GpL16-k0 (antibody, human IgG1, kappa)
heavy 1: not shown
heavy 2: not shown
light: B1 light
notes: also called He Ab P238_16H
B25: GpH7-A5/GpH7-B3 variant H268_05P/GpL16-k0 (antibody, human IgG1, kappa)
heavy 1: not shown
heavy 2: not shown
light: B1 light
notes: also called He Ab H268_05P
B26: GpH7-A5/GpH7-B3 variant H268_15Y/GpL16-k0 (antibody, human IgG1, kappa)
heavy 1: not shown
heavy 2: not shown
light: B1 light
notes: also called He Ab H268_15Y
B27: GpH7-A5/GpH7-B3 variant P271_10E/GpL16-k0 (antibody, human IgG1, kappa)
heavy 1: not shown
heavy 2: not shown
light: B1 light
notes: also called He Ab P271_10E
B28: GpH7-A5/GpH7-B3 variant S239_10E/GpL16-k0 (antibody, human IgG1, kappa)
heavy 1: not shown
heavy 2: not shown
light: B1 light
notes: also called He Ab S239_10E
B29: GpH7-A5/GpH7-B3 variant S239_03V/GpL16-k0 (antibody, human IgG1, kappa)
heavy 1: not shown
heavy 2: not shown
light: B1 light
notes: also called He Ab S239_03V

target: T1, FcγRIIb extracellular domain with …; experiment: SPR (Biacore), relative binding

He/Con_2b	Binder
180 % of HeCon Ab GpH7-A5/GpH7-B3/GpL16-k0	B1
101 % of HeCon Ab GpH7-A5/GpH7-B3/GpL16-k0	B2
199 % of HeCon Ab GpH7-A5/GpH7-B3/GpL16-k0	B3
103 % of HeCon Ab GpH7-A5/GpH7-B3/GpL16-k0	B4
217 % of HeCon Ab GpH7-A5/GpH7-B3/GpL16-k0	B5
102 % of HeCon Ab GpH7-A5/GpH7-B3/GpL16-k0	B6
107 % of HeCon Ab GpH7-A5/GpH7-B3/GpL16-k0	B7
120 % of HeCon Ab GpH7-A5/GpH7-B3/GpL16-k0	B8
199 % of HeCon Ab GpH7-A5/GpH7-B3/GpL16-k0	B9
108 % of HeCon Ab GpH7-A5/GpH7-B3/GpL16-k0	B10
111 % of HeCon Ab GpH7-A5/GpH7-B3/GpL16-k0	B11
111 % of HeCon Ab GpH7-A5/GpH7-B3/GpL16-k0	B12
114 % of HeCon Ab GpH7-A5/GpH7-B3/GpL16-k0	B13
147 % of HeCon Ab GpH7-A5/GpH7-B3/GpL16-k0	B14
118 % of HeCon Ab GpH7-A5/GpH7-B3/GpL16-k0	B15
105 % of HeCon Ab GpH7-A5/GpH7-B3/GpL16-k0	B16
177 % of HeCon Ab GpH7-A5/GpH7-B3/GpL16-k0	B17
114 % of HeCon Ab GpH7-A5/GpH7-B3/GpL16-k0	B18
177 % of HeCon Ab GpH7-A5/GpH7-B3/GpL16-k0	B19
312 % of HeCon Ab GpH7-A5/GpH7-B3/GpL16-k0	B20
102 % of HeCon Ab GpH7-A5/GpH7-B3/GpL16-k0	B21
149 % of HeCon Ab GpH7-A5/GpH7-B3/GpL16-k0	B22
143 % of HeCon Ab GpH7-A5/GpH7-B3/GpL16-k0	B23
115 % of HeCon Ab GpH7-A5/GpH7-B3/GpL16-k0	B24
116 % of HeCon Ab GpH7-A5/GpH7-B3/GpL16-k0	B25
106 % of HeCon Ab GpH7-A5/GpH7-B3/GpL16-k0	B26
109 % of HeCon Ab GpH7-A5/GpH7-B3/GpL16-k0	B27
181 % of HeCon Ab GpH7-A5/GpH7-B3/GpL16-k0	B28
108 % of HeCon Ab GpH7-A5/GpH7-B3/GpL16-k0	B29
